In paper PMC10504348:
Where “and” joins values, the source holds several entries; their conditions need not be identical. Equal values may be shown once.

Experiments:
[1] = target: C-terminally truncated HRSV nucleoprotein N1-370 (strain Long), as N-RNA assemblies (Human respiratory syncytial virus (strain Long)) (UniProt P03418); experiment: cryo-EM structure; purified N-RNA assemblies in TEN buffer (50 mM Tris-HCl, 10 mM EDTA, 150 mM NaCl, pH 7.4), plunge-frozen on holey carbon grids; Glacios microscope, K2 detector; assemblies classified and reconstructed separately
[2] = target: Human respiratory syncytial virus nucleoprotein N, full-length wild type (strain Long), as N-RNA assemblies (Human respiratory syncytial virus (strain Long)) (UniProt P03418); experiment: as above

Row | Substance | stoichiometry N [1] | stoichiometry N [2]
1 | C-terminally truncated HRSV nucleoprotein N1-370 (strain Long), as N-RNA assemblies (from UniProt P03418 1-370) (domain or fragment) | 10 | 
2 | Human respiratory syncytial virus nucleoprotein N, full-length wild type (strain Long), as N-RNA assemblies (from UniProt P03418 1-391) (natural protein) |  | 10 and 11
